# Experimental data as given in patent US7809428B2, “Devices for detection and therapy of atheromatous plaque” (The General Hospital Corporation, priority 2001, dated 2010).
# Key:
# [1] = tested on: aortic plaque of atherosclerotic rabbits; settings: rabbit, in vivo
# Method: For confocal fluorescence microscopy, selected parts of the aortas were snap frozen in liquid nitrogen and approximately 10-20 μm frozen sections were prepared. These sections underwent laser scanning confocal fluorescence microscopy to detect the tissue distribution of the ce6. The red intracellular fluorescence from ce6 together with green tissue auto-fluorescence was imaged in the cells in 10 μm frozen sections. Sections were examined with a laser scanning confocal fluorescence microscope. A Leica DMR confocal laser fluorescence microscope (Leica Mikroskopie und Systeme GmbH, Wetzler, Germany)(excitation 488 nm argon laser) and 4×−40× air immersion lens or a 100× oil immersion objective was used to image at a resolution of 1024×1024 pixels. […] These channels were overlaid using TCS NT software (Version 1.6.551, Leica Lasertechnik, Heidelberg, Germany) to allow visualization of overlap of red and green fluorescence. These sections were also stained by immunohistochemistry using macrophage specific monoclonal antibodies and conventional H&E staining. Other parts of normal and atherosclerotic aorta were cut into small pieces, weighed and dissolved in sodium hydroxide/SDS and the tissue content of ce6 was determined by spectrofluorimetry as previously described (Hamblin et al (2000) Br. J. Cancer 83:1544). […]
# [2] = tested on: balloon-injured abdominal aorta plaque; assay: In vivo photodynamic therapy of rabbit aorta through flowing blood
# Method: Animals (one atherosclerotic and one normal rabbit, each injected with Mal-BSA-ce6 24 hours previously; and one atherosclerotic rabbit that received no injection) were anesthetized as before and a cylindrical diffusing tipped fiber optic (length of tip=2 cm, diameter=1 mm) was advanced to a position midway along the balloon-injured abdominal aorta. […] Light was delivered at a fluence rate of approximately 100 mW/cm of diffusing tip and a total fluence of approximately 100 J/cm was delivered. At the conclusion of the illumination, the fiber was withdrawn and the arteriotomy and overlying wound were closed. Animals were sacrificed 48 hours later. […] Complete aortas and iliac arteries were removed from the PDT treated normal and atherosclerotic rabbits and control (no Mal-BSA-ce6 injection) atherosclerotic rabbit and were examined by histology using H&E, Masson Trichrome and Verhoeffs stain.
# [3] = tested on: aortic and iliac plaque of atherosclerotic rabbits; assay: Intimal surface fluorescence by OMA-LIF system; assay type: in vivo, rabbit
# Text: The second measurement of intimal surface fluorescence was made by the OMA-LIF system described above. At least 15 separate fluorescence measurements were taken from each artery segment. In addition, the iliac artery through which the balloon was passed also sustained an injury due to its relatively small diameter compared to aortic section 5 and, therefore, developed atherosclerosis compared to the uninjured iliac artery. […] Sections 3, 4 and injured iliac of atherosclerotic compared to normal control had p values<0.0001, while section 5 and uninjured iliacs had p values<0.0005. Accordingly, the less severe plaques of section 5 are distinguishable from the macrophage-rich plaques of sections 3 and 4.
# In FIG. 14a, a marked contrast was seen between a large aortic plaque and an area of the abdominal aorta 5 mm beneath the plaque. In FIG. 14b, another marked contrast was seen between the balloon injured iliac artery and the contralateral normal artery in the same rabbit. […] These spectra were obtained in a rabbit that had received an overdose of anesthesia. […] By palpation of the outside of the artery, the position of the catheter in relation to plaques was determined Thus, a novel method has been developed for targeting a photosensitizer composition to the activated macrophages of a vulnerable plaque with high specificity.
# [4] = tested on: experimental atherosclerotic lesions of the aorta; assay type: in vivo, rabbit
# Method: Male New Zealand White rabbits weighing 2.5-3.0 kg (Charles River Breeding Laboratories) were maintained on a 2% cholesterol-6% peanut oil diet (ICN) for 3 months. […] The femoral artery was then ligated, and the wound closed. The animals were allowed to recover from anesthesia and then returned to their cages.
# Two to four millicuries of the ^99mTc-Ap4A-glucoheptonate, ^99mTc-AppCHClppA-glucoheptonate, or ^99mTc-glucoheptonate (control) was injected into marginal ear veins of groups of three rabbits with experimental atherosclerotic lesions. As a control, three unlesioned animals were injected with 2-4 mCi of ^99mTc-Ap4A-glucoheptonate. After radiopharmaceutical administration, serial gamma images were collected every minute for the first 5 minutes, every 2 minutes for the next 25 minutes, and every 5 minutes for the next 2.5 hours. In all of the rabbits, images were acquired in the anterior and lateral decubitus projections, including the heart and aorta, by using a standard field-of-view gamma camera (Series 100, Ohio Nuclear, Solon, Ohio) equipped with a high-resolution parallel-hole collimator and interfaced with a dedicated computer system (Technicare 560, Solon, Ohio). The pulse height analyzer was adjusted to record the 140 KeV photopeak of ^99mTc, and all images were recorded in a 256×256 matrix.
# After acquiring the final images, the animals were sacrificed with an overdose of sodium pentobarbital. The aortas were removed, opened along the ventral surface, and mounted on styrofoam blocks. The aortas then were placed on the face of the gamma camera and ex vivo images were recorded for 10 minutes.
# [5] = tested on: J774 or RAW264.7 mouse macrophage-like cells versus non-target EMT-6 cells; assay: Cellular uptake of conjugates and free ce6; assay type: cell-based; settings: J774 and EMT-6 cells
# Method: J774.A1 (J774) and RAW 264.7 mouse macrophage-like cell lines, together with EMT-6 mouse mammary […] cells, were obtained from ATCC (Rockville, Md.). Cells were grown in RPMI 1640 media containing HEPES, glutamine, 10% fetal calf serum (FCS), 100 U/ml penicillin and 100 μg/ml streptomycin. They were passaged by washing with phosphate buffered saline (PBS) without Ca^2+ and Mg^2+ and by adding trypsin-EDTA to the plate for 10 minutes at 37° C.
# For cellular uptake studies, cells were grown to approximately 90% confluency in twenty-four well plates and the conjugate or photosensitizer was added in about 1 ml medium containing approximately 10% serum to each well. […] The trypsin supernatant was checked for the presence of fluorescence to quantify any surface binding which might easily be removed by trypsin. The fluorescence was measured using an excitation wavelength of 400 nm and the emission scanned from 580 to 700 nm in order to calculate the peak area (λmax=664 nm). A series of dilutions in approximately 1.5 ml 0.1M NaOH/1% SDS of known concentrations of each separate conjugate and photosensitizer was scanned for fluorescence as above in order to prepare calibration curves to allow for quantitation of the ce6 by conversion of the measured peak areas into mol ce6 equivalent. […] Results were expressed as mol of ce6 per mg cell protein. […]
# [6] = atherosclerotic rabbit, conjugate and light
substance,measurement,setting,value
Mal-BSA-ce6,"extracted ce6 fluorescence per gram tissue, difference atherosclerotic versus normal rabbits",[1],significant
same,gross damage at necropsy in illuminated aortic section or surrounding tissue,"[2]; atherosclerotic rabbit, 48 hours after PDT",no gross damage visible
same,histological changes in the illuminated section,[2]; [6],evidence of apoptosis (pyknotic nuclei) and an inflammatory infiltrate in the plaque
same,necrosis in the illuminated section (histology),[2]; [6],some coagulative necrosis
same,overall effect of treatment on plaque histology,[2]; [6],favorable modifications of plaque histology and reduced vulnerability
same,gross damage at necropsy in surrounding tissue,"[2]; normal rabbit, 48 hours after PDT",some minor damage visible in the paraaortic muscle
same,histological changes,"[2]; normal rabbit, photosensitizer composition and light",Histological changes were not observed
same,ill effects of treatment before sacrifice,"[2]; two rabbits that received composition and light, two days",no ill effects
same,"intimal surface fluorescence, atherosclerotic versus normal rabbit","[3]; arteries with inflamed plaque (sections 3, 4 and injured iliac, p<0.0001)",highly significant increases in fluorescence
same,"intimal surface fluorescence, atherosclerotic versus normal rabbit",[3]; sections 1 and 2,not significantly different
^99mTc-glucoheptonate,"clearance of radioactivity from all organs, t1/2s","[4]; rabbit, in vivo",5 to 10 min
same,organs in which radioactivity accumulated,"[4]; rabbit, in vivo",accumulated in the kidneys and bladder
same,accumulation of radioactivity in the aortic lesions,[4]; rabbits with experimental atherosclerosis,no evidence of specific accumulation in the aortic lesions
chlorin e6 [ce6],uptake of unbound ce6 by receptor-positive and receptor-negative cells,[5],indiscriminate uptake
